Test [1] has as its target FQSE (SEQ ID NO:10)-specific binding sites in rat cortex membranes (rat). As to the kind of experiment: radioligand analysis, rat cortex membranes, incubation 25 min at 24 °C (selected condition).
The target is the same in test [2]. In words: radioligand analysis, rat cortex membranes, incubation 20 min at 24 °C.
Test [3] shares this target. As to the kind of experiment: radioligand analysis, rat cortex membranes, buffer with added salts (NaCl, KCl, KH2PO4, CaCl2, MgCl2).
The target is the same in test [4]. In words: radioligand analysis, rat cortex membranes, incubation 30 min at 24 °C.
For test [5] the target is unchanged. In words: radioligand analysis, rat cortex membranes, incubation 10 min at 4 °C.
Test [6] has the same target. In words: radioligand analysis, rat cortex membranes, incubation 20 min at 37 °C.
Test [7] shares this target. In words: radioligand analysis, rat cortex membranes, incubation 10 min at 37 °C.
For test [8] the target is unchanged. In words: radioligand analysis, rat cortex membranes, incubation 30 min at 37 °C.
The target is the same in test [9]. As to the kind of experiment: radioligand analysis with [3H] FQSE and unlabeled FQSE on membranes isolated by various techniques.
The target is the same in test [10]. As to the kind of experiment: radioligand analysis, rat cortex membranes, incubation 20 min at 4 °C.
The target in test [11] is NMDA receptors of rat hippocampal plasma membranes (rat). As to the kind of experiment: radioligand analysis with [^3H]-FQSE and unlabeled FQSE on rat hippocampal membranes isolated for NMDA receptors (negative control).
For test [12], the target named is GABAA receptor of rat cerebral cortex plasma membranes (rat). In words: [^3H]-Flunitrazepam radioligand analysis (benzodiazepine site), 30 min incubation, 24 °C; FQSE 10^-5 M.
For test [13] the target is unchanged. As to the kind of experiment: [^3H]-Flunitrazepam radioligand analysis (benzodiazepine site), 30 min incubation, 4 °C; FQSE 10^-4 M.
Test [14] shares this target. As to the kind of experiment: [^3H]-Flunitrazepam radioligand analysis (benzodiazepine site), 25 min pre-incubation + 30 min incubation, 4 °C; FQSE 10^-4 M.
Test [15] has the same target. As to the kind of experiment: [^3H]-Flunitrazepam radioligand analysis (benzodiazepine site), 30 min incubation, 24 °C; FQSE 10^-4 M.
Test [16] has the same target. In words: [^3H]-Flunitrazepam radioligand analysis (benzodiazepine site), 25 min pre-incubation + 30 min incubation, 24 °C; FQSE 10^-4 M.
Test [17] concerns the target FQSE (SEQ ID NO:10)-specific binding sites in rat cortex membranes (rat). In words: displacement of [^3H]-FQSE by unlabeled FQSE, rat cortex membranes, 25 min at room temperature.
The target of test [18] is GABAA receptor of rat cerebral cortex plasma membranes (rat). In words: [^3H]-Flunitrazepam radioligand analysis (benzodiazepine site), 25 min pre-incubation + 30 min incubation, 4 °C; FQSE 10^-5 M.
Test [19] has the same target. In words: [^3H]-Flunitrazepam radioligand analysis (benzodiazepine site), 25 min pre-incubation + 30 min incubation, 24 °C; FQSE 10^-5 M.
The target is the same in test [20]. In words: [^3H]-Flunitrazepam radioligand analysis (benzodiazepine site), 30 min incubation, 4 °C; FQSE 10^-5 M.

Consider 2 molecules from patent publication US20220175873A1.

As usually defined, the IC50 is the concentration at which inhibition is half-maximal. A lower IC50 goes with greater potency.

No end group written: not given here.

Turning to FQSE (also: tritium label ([3H]), position not given here) [[^3H]-FQSE (SEQ ID NO:10), tritium radiolabeled peptide], the % percentage of specific binding of total binding was found to be 86% in test [1]; 75% in test [2]; 78% in test [4]; 47% in test [5]; 79% in test [6]; 72% in [7]. Moreover, the % percentage of specific binding of total binding in [8] was found to be 77%; in test [10], 48%. Moreover, in test [3], the percentage of specific binding turned out to be 63%. The molecule also came in with a specific FQSE binding percentage of the total binding in test [9] of 0 to 47%. Further, the difference between total and non-specific binding in test [11] amounted to 11%.

In the case of FQSE [FQSE (SEQ ID NO:10) peptide, unlabeled], the Specific binding of [^3H]-Flunitrazepam, relative to control levels, % in test [12] is 101%; in [13] it was 100%; in test [14], 101%; in test [15], 101%; in test [16], 101%; in [18], 101%. The Specific binding of [^3H]-Flunitrazepam, relative to control levels, % was 99.8% in [19] and 100% in test [20]. Also, the IC50 in test [17] worked out at 2000 nM.
